The results in this text go back to US20080072349.

The data set has as its target purified deactivated Arabidopsis Rubisco (Ribulose-1,5-bisphosphate carboxylase/oxygenase), O03042.

B1: Rubisco Activase derived polypeptide 183H12 (protein)
chain: MVKEDKQTDGDRWRGLAYDTSDDQQDITRGKGMVDSVFQAPMGTGTHHAVLSSYEYVSQGLRQYNLDNMMDGFYIAPAFMDKLVVHITKNFLTLPNIKVPLILGIWGGKGQGKSFQCELVMAKMGINPIMMSAGELESGNAGEPAKLIRQRYREAADLIKKGKMCCLFINDLDAGAGRMGGTTQYTVNNQMVNATLMNIADNPTNVQLPGMYNKEENARVPIICTGNDFSTLYAPLIRDGRMEKFYWAPTREDRIGVCKGIFRTDKIKDEDIVRLVDQFPGQSIDFFGALRARVYDDEVRKFVESLGVEKIGKRLVNSREGPPVFEQPEMTYEKLMEYGNMLVMEQENVKRVQLAETYLSQAALGDANADAIGRGTFYGKTEEKEPSKLE
For the protein B1, the Activation of deactivated Rubisco assay, 25° C., relative activity (%) amounted to 109%; the Activity (3rd tier) 25° C. (µmol CO2 min^-1 mg^-1) turned out to be 1.05; the Activity (3rd tier) 40° C. (µmol CO2 min^-1 mg^-1) was 0.857; the Rubisco activation under catalytic conditions assay, 25° C., relative activity (%) came out at 118%. The “specific activity, Rubisco activation under catalytic conditions” value is “The protein displaying the highest specific activity at either 25 °C or 40 °C was the best variant isolated in the first round, 183H12”.

B2: Rubisco Activase derived polypeptide 214A4 (protein)
chain: MVKEDKQTDGDRWRGLAYDTSDDQQDITRGKGMVDSVFQAPTGTGTHHAVLSSYEYVSQGLRQYNLDNMMDGFYIAPAFMDKLVVHITKNFLTLPNIKVPLILGIWGGKGQGKSFQCELVMAKMGINPIMMSAGELESGNAGEPAKLIRQRYREAADLIKKGKMCCLFINDLDAGAGRMGGTTQYTVNNQMVNATLMNIADNPTNVQLPGMYNKEENARVPIICTGNDFSTLYAPLIRDGRMEKFYWAPTREDRIGVCKGIFRTDKIKDEDIVRLVDQFPGQSIDFFGALRARVYDDEVRKFVESLGVEKIGKRLVNSREGPPVFEQPEMTYEKLMEYGNMLVMEQENVKRVQLAETYLSQAALGDANADAIGRGTFYGKTEEKEPSKLE
With B2, the Activation of deactivated Rubisco assay, 25° C., relative activity (%) stood at 111%; the Activity (3rd tier) 25° C. (µmol CO2 min^-1 mg^-1) was 1.07; the Activity (3rd tier) 40° C. (µmol CO2 min^-1 mg^-1) was found to be 0.986; the Rubisco activation under catalytic conditions assay, 25° C., relative activity (%) was 101%.

B3: Rubisco Activase derived polypeptide 301C7 (protein)
chain: MVKEDKQTDGDRWRGLAYDTSDDQQDITRGKGMVDSVFQAPMGTGTHHAVLSSYEYVSQGLRQYNLDNMMDGFYIAPAFMDKLVVHITKNFLTLPNIKVPLILGIWGGKGQGKSFQCELVMAKMGINPIMMSAGELESGNAGEPAKLIRQRYREAADLIKKGKMCCLLINDLDAGAGRMGGTTQYTVNNQMVNATLMNIADNPTNVQLPGMYNKEENARVPIICTGNDFSTLYAPLIRDGRMEKFYWAPTREDRIGICKGIFRTDKIKDEDIVTLVDQFPGQSIDFFGALRARVYDDEVRKFVESLGVENIGKRLVNSREGPPVFEQPEMTYEKLMEYGNMLVMEQENVKRVQLAETYLSQAALGDANADAIGRGTFYGKTEEKEPSKLE
As to B3, the Activation of deactivated Rubisco assay, 25° C., relative activity (%) came to 94%; the Activity (3rd tier) 25° C. (µmol CO2 min^-1 mg^-1) was determined as 0.905; the Activity (3rd tier) 40° C. (µmol CO2 min^-1 mg^-1) was 0.889; the Rubisco activation under catalytic conditions assay, 25° C., relative activity (%) is 96%.

B4: Rubisco Activase derived polypeptide 126H4 (protein)
chain: MVKEDKQTDGDRWRGLAYDTSDDQQDITRGKGMVDSVFQAPMGTGTHHAVLSSYEYVSQGLRQYNLDNMMDGFYIAPAFMDKLVVHITKNFLTLPNIKVPLILGIWGGKGQGKSFQCELVMAKMGINPIRMSAGELESGNAGEPAKLIRQRYREAADLIKKGKMCCLFINDLDAGAGRMGGTTQYTVNNQMVNATLMNIADNPTNVQLPGMYNKEENARVPIICTGNDFSTLYAPLIRDGRMEKFYWAPTREDRIGVCKGIFRTDKIKDEDIVTLVDQFPGQSIDFFGALRARVYDDEVRKFVESLGVEKIGKRLVNSREGPPVFEQPEMTYEKLMEYGNMLVMEQENVKRVQLAETYLSQAALGDANADAIGRGTFYGKTEEKEPSKLE
Protein B4 yielded an Activity (3rd tier) 25° C. (µmol CO2 min^-1 mg^-1) of 0.616 and an Activity (3rd tier) 40° C. (µmol CO2 min^-1 mg^-1) of 0.596.

B5: Rubisco Activase derived polypeptide 382D8 (protein)
chain: MVKEDKQTDGDRWRGLAYDTSDDQQDITRGKGMVDSVFQAPMGTGTHHAVLSSYEYVSQGLRQYNLDNMMDGFYIAPAFMDKLVVHITKNFLTLPNIKVPLILGIWGGKGQGKSFQCELVMAKMGINPIMVSAGELESGNAGEPAKLIRQRYREAADLIKKGKMCCLFINDLDAGAGRMGGTTQYTVNNQMVNATLMNIADNPTNVQLPGMYNKEENARVPIICTGNDFSTLYAPLIRDGRMEKFYWAPTREDRIGICKGIFRTDKIKDEDIVTLVDQFPGQSIDFFGALRARVYDDEVRKFVESLGVENIGKRLVNSREGPPVFEQPEMTYEKLMEYGNMLVMEQENVKRVQLAETYLSQAALGDANADAIGRGTFYGKTEEKEPSKLE
Regarding B5, the Activation of deactivated Rubisco assay, 25° C., relative activity (%) is 105%; the Activity (3rd tier) 25° C. (µmol CO2 min^-1 mg^-1) turned out to be 1.01; the Activity (3rd tier) 40° C. (µmol CO2 min^-1 mg^-1) turned out to be 0.91; the Rubisco activation under catalytic conditions assay, 25° C., relative activity (%) is 98%.

B6: Rubisco Activase derived polypeptide 079H6 (protein)
chain: MVKEDKQTDGDRWRGLAYDTSDDQQDITRGKGMVDSVFQAPTGTGTHHAVLSSYEYVSQGLRQYNLDNMMDGFYIAPAFMDKLVVHITKNFLTLPNIKVPLILGIWGGKGQGKSFQCELVMAKMGINPIMISAGELESGNAGEPAKLIRQRYREAADLIKKGKMCCLFINDLDAGAGRMGGTTQYTVNNQMVNATLMNIADNPTNVQLPGMYNKEENARVPIICTGNDFSTLYAPLIRDGRMEKFYWAPTREDRIGVCKGIFRTDKIKDEDIVTLVDQFPGQSIDFFGALRAKVYDDEVRKFVESLGVEKIGKRLVNSREGPPVFEQPEMTYEKLMEYGNMLVMEQENVKRVQLAETYLSQAALGDANADAIGRGTFYGKTEEKEPSKLE
For the protein B6, the Activation of deactivated Rubisco assay, 25° C., relative activity (%) came to 111%; the Activity (3rd tier) 25° C. (µmol CO2 min^-1 mg^-1) came out at 1.06; the Activity (3rd tier) 40° C. (µmol CO2 min^-1 mg^-1) was 0.94; the Rubisco activation under catalytic conditions assay, 25° C., relative activity (%) came to 105%.

B7: Rubisco Activase derived polypeptide 182B11 (protein)
chain: MVKEDKQTDGDRWRGLAYDTSDDQQDITRGKGMVDSVFQAPMGTGTHHAVLSSYEYVSQGLRQYNLDNMMDGFYIAPAFMDKLVVHITKNFLTLPNIKVPLILGIWGGKGQGKSFQCELVMAKMGINPIMISAGELESGNAGEPAKLIRQRYREAADLIKKGKMCCLFINDLDAGAGRMGGTTQYTVNNQMVNATLMNIADNPTNVQLPGMYNKEENARVPIICTGNDFSTLYAPLIRDGRMEKFYWAPTREDRIGVCKGIFRTDKIKDEDIVTLVDQFPGQSIDFFGALRARVYDDEVRKFVESLGVEKIGKRLVNSREGPPVFEQPEMTYEKLMEYGNMLVMEQENVKRVQLAETYLSQAALGDANADAIGRGTFYGKTEEKEPSKLE
B7: the Activity (3rd tier) 25° C. (µmol CO2 min^-1 mg^-1) was determined as 0.426 and the Activity (3rd tier) 40° C. (µmol CO2 min^-1 mg^-1) is 0.359.

B8: Rubisco Activase derived polypeptide 301H3 (protein)
chain: MVKEDKQTDGDRWRGLAYDTSDDQQDITRGKGMVDSVFQAPMGTGTHHAVLSSYEYVSQGLRQYNLDNMMDGFYIAPAFMDKLVVHITKNFLTLPNIKVPLILGIWGGKGQGKSFQCELVMAKMGINPIMMSAGELESGNAGEPAKLIRQRYREAADLIKKGKMCCLFINDLDAGAGRMGGTTQYTVNNQMVNATLMNIADNPTNVQLPGMYNKEENARVPIICTGNDFSTLYAPLIRDGRMEKFYWAPTREDRIGICKGIFRTDKIKDEDIVRLVDQFPGQSIDFFGALRARVYDDEVRKFVESLGVENIGKRLVNSREGPPVFEQPEMTYEKLMEYGNMLVMEQENVKRVQLAETYLSQAALGDANADAIGRGTFYGKTEEKEPSKLE
For the protein B8, the Activation of deactivated Rubisco assay, 25° C., relative activity (%) was 101%; the Activity (3rd tier) 25° C. (µmol CO2 min^-1 mg^-1) came out at 0.971; the Activity (3rd tier) 40° C. (µmol CO2 min^-1 mg^-1) stood at 0.86; the Rubisco activation under catalytic conditions assay, 25° C., relative activity (%) is 92%.

B9: Rubisco Activase derived polypeptide 184B2 (protein)
chain: MVKEDKQTDGDRWRGLAYDTSDDQQDITRGKGMVDSVFQAPMGTGTHHAVLSSYEYVSQGLRQYNLDNMMDGFYIAPAFMDKLVVHITKNFLTLPNIKVPLILGIWGGKGQGKSFQCELVMAKMGINPIMMSAGELESGNAGEPAKLIRQRYREAADLIKKGKMCCLFINDLDAGAGRMGGTTQYTVNNQMVNATLMNIADNPTNVQLPGMYNKEENARVPIICTGNDFSTLYAPLIRDGRMEKFYWAPTREDRIGVCKGIFRTDKIKDEDIVTLVDQFPGQSIDFFGALRARVYDDEVRKFVESLGVENIGKRLVNSREGPPVFEQPEMTYEKLMEYGNMLVMEQENVKRVQLAETYLSQAALGDANADAIGRGTFYGKTEEKEPSKLE
Take B9: the Activity (3rd tier) 25° C. (µmol CO2 min^-1 mg^-1) turned out to be 1.05 and the Activity (3rd tier) 40° C. (µmol CO2 min^-1 mg^-1) came out at 0.889.

B10: wild type Rubisco Activase (Arabidopsis, short form RCA1) (protein)
chain: MVKEDKQTDGDRWRGLAYDTSDDQQDITRGKGMVDSVFQAPMGTGTHHAVLSSYEYVSQGLRQYNLDNMMDGFYIAPAFMDKLVVHITKNFLTLPNIKVPLILGIWGGKGQGKSFQCELVMAKMGINPIMMSAGELESGNAGEPAKLIRQRYREAADLIKKGKMCCLFINDLDAGAGRMGGTTQYTVNNQMVNATLMNIADNPTNVQLPGMYNKEENARVPIICTGNDFSTLYAPLIRDGRMEKFYWAPTREDRIGVCKGIFRTDKIKDEDIVTLVDQFPGQSIDFFGALRARVYDDEVRKFVESLGVEKIGKRLVNSREGPPVFEQPEMTYEKLMEYGNMLVMEQENVKRVQLAETYLSQAALGDANADAIGRGTFYGKTEEKEPSKLE
With B10, the Activation of deactivated Rubisco assay, 25° C., relative activity (%) was determined as 100%; the Activity (3rd tier) 25° C. (µmol CO2 min^-1 mg^-1) amounted to 0.96; the Activity (3rd tier) 40° C. (µmol CO2 min^-1 mg^-1) turned out to be 0.634; the Rubisco activation under catalytic conditions assay, 25° C., relative activity (%) was determined as 100%.

B11: Rubisco Activase derived polypeptide 383A12 (protein)
chain: MVKEDKQTDGDRWRGLAYDTSDDQQDITRGKGMVDSVFQAPMGTGTHHAVLSSYEYVSQGLRQYNLDNMMDGFYIAPAFMDKLVVHITKNFLTLPNIKVPLILGIWGGKGQGKSFQCELVMAKMGINPIMMSAGELESGNAGEPAKLIRQRYREAADLIKKGKMCCLLINDLDAGAGRMGGTTQYTVNNQMVNATLMNIADNPTNVQLPGMYNKEENARVPIICTGNDFSTLYAPLIRDGRMEKFYWAPTREDRIGICKGIFRTDKIKDEDIVRLVDQFPGQSIDFFGALRARVYDDEVRKFVESLGVENIGKRLVNSREGPPVFEQPEMTYEKLMEYGNMLVMEQENVKRVQLAETYLSQAALGDANADAIGRGTFYGKTEEKEPSKLE
B11: the Activation of deactivated Rubisco assay, 25° C., relative activity (%) came to 93%; the Activity (3rd tier) 25° C. (µmol CO2 min^-1 mg^-1) came to 0.891; the Activity (3rd tier) 40° C. (µmol CO2 min^-1 mg^-1) stood at 0.92; the Rubisco activation under catalytic conditions assay, 25° C., relative activity (%) amounted to 96%.
